Laboratory results from publication PMC11641776, “Biophysical Characterization of a Novel Phosphopentomutase from the Hyperthermophilic Archaeon Thermococcus kodakarensis” (International Journal of Molecular Sciences, 2024).

Target: the molecule itself
Test: SEC; HiLoad 16/60 Superdex 200 Prep Grade column, 50 mM HEPES pH 7.0, 200 mM NaCl; elution at 61 mL, compared with standards

B1: Phosphopentomutase from Thermococcus kodakarensis (PPMTk) (enzyme)
chain: RLFGTAGIRGTLWEKVTPELAMKVGMAVGTYKSGKALVGRDGRTSSVMLKNAMISGLLSTGMEVLDADLIPTPALAWGTRKLADAGVMITASHNPPTDNGVKVFNGDGTEFYVEQERGLEEIIFSGNFRKARWDEIKPVRNVEVIPDYINAVLDFVGHETNLKVLYDGANGAGSLVAPYLLREMGAKVLSVNAHVDGHFPGRKPEPRYENIAYLGKLVRELGVDLAIAQDGDADRIAVFDEKGNYVDEDTVIALFAKLYVEEHGGGTVVVSIDTGSRIDAVVERAGGRVVRIPLGQPHDGIKRYKAIFAAEPWKLVHPKFGPWIDPFVTMGLLIKLIDENGPLSELVKEIPTYYLKKANVLCPDEYKAEVVRRAAEEVERKLSSEIKEVLTISGFRIALNDGSWILIRPSGTEPKIRVVAEAPTEKRRDELFEMAYSTVSRIVKEAEKK
notes: Phosphopentomutase PPMTk of Thermococcus kodakarensis, encoded by open reading frame TK1777; UniProt entry Q6I7B6; residues 3-447 are modelled in each of the four protomers of the crystal structure; the tag was cut off with TEV protease before SEC and the later analyses; also called TK1777; Tk1777; not shown: His6, N-terminal, cleaved
Question: Which “stoichiometry N” value does the source give for B1 here?
Answer: The value was 4.
